# From patent US20090208995
# T1: recombinant factor B (His-Tag at the C-terminus; culture supernatant, MOI = 0.1, 96 h)
# T1 chain: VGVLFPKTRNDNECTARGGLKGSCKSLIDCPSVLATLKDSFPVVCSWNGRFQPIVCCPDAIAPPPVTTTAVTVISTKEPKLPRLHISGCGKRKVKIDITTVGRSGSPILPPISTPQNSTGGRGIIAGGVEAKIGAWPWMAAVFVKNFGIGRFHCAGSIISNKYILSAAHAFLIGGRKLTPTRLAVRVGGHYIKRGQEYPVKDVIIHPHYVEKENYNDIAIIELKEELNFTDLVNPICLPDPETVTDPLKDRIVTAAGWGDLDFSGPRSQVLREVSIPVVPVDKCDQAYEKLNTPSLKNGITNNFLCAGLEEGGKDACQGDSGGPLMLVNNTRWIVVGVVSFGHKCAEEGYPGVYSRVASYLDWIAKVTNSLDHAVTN
# T2: recombinant Pro-CE (pro-clotting enzyme, His-Tag at the C-terminus, expressed in expresSF+ insect cells)
# T2 chain: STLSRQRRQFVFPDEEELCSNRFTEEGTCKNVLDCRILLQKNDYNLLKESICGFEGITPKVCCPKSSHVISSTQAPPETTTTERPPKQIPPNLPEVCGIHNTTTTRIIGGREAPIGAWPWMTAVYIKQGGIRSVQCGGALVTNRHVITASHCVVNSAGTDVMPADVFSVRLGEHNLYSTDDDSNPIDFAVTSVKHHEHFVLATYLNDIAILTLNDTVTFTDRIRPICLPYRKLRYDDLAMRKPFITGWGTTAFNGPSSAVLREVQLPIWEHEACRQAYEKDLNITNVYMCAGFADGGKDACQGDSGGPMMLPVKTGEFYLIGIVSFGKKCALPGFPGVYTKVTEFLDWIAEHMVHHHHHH
# Legend:
# [1] = target: T1, recombinant factor B (His-Tag at the …)
# [2] = target: T2, recombinant Pro-CE (pro-clotting …)
protein,measurement,setting,value
"recombinant factor C (derived from Tachypleus rotundicauda), commercial element of PyroGene (product of Cambrex) (protein) KGVDLGLCDETRFECKCGDPGYVFNIPVKQCTYFYRWRPYCKPCDDLEAKDICPKYKRCQECKAGLDSCVTCPPNKYGTWCSGECQCKNGGICDQRTGACACRDRYEGVHCEILKGCPLLPSDSQVQEVRNPPDNPQTIDYSCSPGFKLKGMARISCLPNGQWSNFPPKCIRECAMVSSPEHGKVNALSGDMIEGATLRFSCDSPYYLIGQETLTCQGNGQWNGQIPQCKNLVFCPDLDPVNHAEHKVKIGVEQKYGQFPQGTEVTYTCSGNYFLMGFDTLKCNPDGSWSGSQPSCVKVADREVDCDSKAVDFLDDVGEPVRIHCPAGCSLTAGTVWGTAIYHELSSVCRAAIHAGKLPNSGGAVHVVNNGPYSDFLGSDLNGIKSEELKSLARSFRFDYVRSSTAGKSGCPDGWFEVDENCVYVTSKQRAWERAQGVCTNMAARLAVLDKDVIPNSLTETLRGKGLTTTWIGLHRLDAEKPFIWELMDRSNVVLNDNLTFWASGEPGNETNCVYMDIQDQLQSVWKTKSCFQPSSFACMMDLSDRNKAKCDDPGSLENGHATLHGQSIDGFYAGSSIRYSCEVLHYLSGTETVTCTTNGTWSAPKPRCIKVITCQNPPVPSYGSVEIKPPSRTNSISRVGSPFLRLPRLPLPLARAAKPPPKPRSSQPSTVDLASKVKLPEGHYRVGSRAIYTCESRYYELLGSQGRRCDSNGNWSGRPASCIPVCGRSDSPRSPFIWNGNSTEIGQWPWQAGISRWLADHNMWFLQCGGSLLNEKWIVTAAHCVTYSATAEIIDPNQFKMYLGKYYRDDSRDDDYVQVREALEIHVNPNYDPGNLNFDIALIQLKTPVTLTTRVQPICLPTDITTREHLKEGTLAVVTGWGLNENNTYSETIQQAVLPVVAASTCEEGYKEADLPLTVTENMFCAGYKKGRYDACSGDSGGPLVFADDSRTERRWVLEGIVSWGSPSGCGKANQYGGFTKVNVFLSWIRQFI","Reactivity, Av.; sample (D) FB + FC, Et 0 ng/mL (A405 to 492 nm)",[1],0.025
same,"Reactivity, Av.; sample (D) FB + FC, Et 100 ng/mL (A405 to 492 nm)",[1],0.033
same,"Reactivity; sample (D) FB + FC, Et 0 ng/mL, first reading (A405 to 492 nm)",[1],0.024
same,"Reactivity; sample (D) FB + FC, Et 0 ng/mL, second reading (A405 to 492 nm)",[1],0.025
same,"Reactivity; sample (D) FB + FC, Et 100 ng/mL, first reading (A405 to 492 nm)",[1],0.032
same,"Reactivity; sample (D) FB + FC, Et 100 ng/mL, second reading (A405 to 492 nm)",[1],0.034
same,hydrolysis of Boc-Leu-Gly-Arg-pNA in the complete reconstitution system with Et (Pro-CE also present),[1],cascade reaction of Et proceeds in a concentration-dependent manner through employment of recombinant factors C and B and recombinant Pro-CE in combination
same,"Reactivity, Av.; sample (C) PCE + FC, Et 0 ng/mL (A405 to 492 nm)",[2],0.02
same,"Reactivity, Av.; sample (C) PCE + FC, Et 100 ng/mL (A405 to 492 nm)",[2],0.03
same,"Reactivity; sample (C) PCE + FC, Et 0 ng/mL, first reading (A405 to 492 nm)",[2],0.02
same,"Reactivity; sample (C) PCE + FC, Et 0 ng/mL, second reading (A405 to 492 nm)",[2],0.02
same,"Reactivity; sample (C) PCE + FC, Et 100 ng/mL, first reading (A405 to 492 nm)",[2],0.029
same,"Reactivity; sample (C) PCE + FC, Et 100 ng/mL, second reading (A405 to 492 nm)",[2],0.03
"recombinant factor B (His-Tag at the C-terminus; culture supernatant, MOI = 0.1, 96 h) (protein) VGVLFPKTRNDNECTARGGLKGSCKSLIDCPSVLATLKDSFPVVCSWNGRFQPIVCCPDAIAPPPVTTTAVTVISTKEPKLPRLHISGCGKRKVKIDITTVGRSGSPILPPISTPQNSTGGRGIIAGGVEAKIGAWPWMAAVFVKNFGIGRFHCAGSIISNKYILSAAHAFLIGGRKLTPTRLAVRVGGHYIKRGQEYPVKDVIIHPHYVEKENYNDIAIIELKEELNFTDLVNPICLPDPETVTDPLKDRIVTAAGWGDLDFSGPRSQVLREVSIPVVPVDKCDQAYEKLNTPSLKNGITNNFLCAGLEEGGKDACQGDSGGPLMLVNNTRWIVVGVVSFGHKCAEEGYPGVYSRVASYLDWIAKVTNSLDHAVTN","Reactivity, Av.; sample (A) PCE + FB + FC (factor C also present), Et 0 ng/mL (A405 to 492 nm)",[2],0.023
same,"Reactivity, Av.; sample (A) PCE + FB + FC (factor C also present), Et 100 ng/mL (A405 to 492 nm)",[2],0.649
same,"Reactivity, Av.; sample (B) PCE + FB, Et 0 ng/mL (A405 to 492 nm)",[2],0.023
same,"Reactivity, Av.; sample (B) PCE + FB, Et 100 ng/mL (A405 to 492 nm)",[2],0.023
same,"Reactivity; sample (A) PCE + FB + FC (factor C also present), Et 0 ng/mL, first reading (A405 to 492 nm)",[2],0.024
same,"Reactivity; sample (A) PCE + FB + FC (factor C also present), Et 0 ng/mL, second reading (A405 to 492 nm)",[2],0.022
same,"Reactivity; sample (A) PCE + FB + FC (factor C also present), Et 100 ng/mL, first reading (A405 to 492 nm)",[2],0.652
same,"Reactivity; sample (A) PCE + FB + FC (factor C also present), Et 100 ng/mL, second reading (A405 to 492 nm)",[2],0.645
same,"Reactivity; sample (B) PCE + FB, Et 0 ng/mL, first reading (A405 to 492 nm)",[2],0.023
same,"Reactivity; sample (B) PCE + FB, Et 0 ng/mL, second reading (A405 to 492 nm)",[2],0.022
same,"Reactivity; sample (B) PCE + FB, Et 100 ng/mL, first reading (A405 to 492 nm)",[2],0.022
same,"Reactivity; sample (B) PCE + FB, Et 100 ng/mL, second reading (A405 to 492 nm)",[2],0.023
same,hydrolysis of Boc-Leu-Gly-Arg-pNA in the complete reconstitution system with Et (factor C also present),[2],cascade reaction of Et proceeds in a concentration-dependent manner through employment of recombinant factors C and B and recombinant Pro-CE in combination
same,"hydrolysis of Boc-Leu-Gly-Arg-pNA in the presence of Et at high concentration, without factor C",[2],"in the samples containing recombinant Pro-CE and/or recombinant factor B, activation attributed to high concentration Et was not observed"
